Key:
Assay in all cases: pull-down; GST-yNpl4 (0.5 μM, wild type or mutant) on Glutathione Sepharose 4B beads, 1 h at room temperature with 0.5 μM yUfd1, 3 μM Cdc48 (0.5 μM hexamer) and 1 μg K48 chains in 100 μL 50 mM Tris-HCl pH 7.5, 100 mM NaCl, 10% glycerol, 0.1% Triton X-100; chains detected by anti-Ub immunoblot, proteins by Ponceau S
Conditions in all cases: both partners purified
GST-yNpl4 T571A = molecular target: T1, GST-yNpl4 T571A (Saccharomyces cerevisiae, UniProt P33755 1-580, T571A)
T1 construct: Npl4 of Saccharomyces cerevisiae (yNpl4), full length; source: E. coli Rosetta (DE3) (pGEX-6P1), purified (Glutathione Sepharose FF, Resource Q); not shown: GST, N-terminal, kept
T1 sequence (looked up): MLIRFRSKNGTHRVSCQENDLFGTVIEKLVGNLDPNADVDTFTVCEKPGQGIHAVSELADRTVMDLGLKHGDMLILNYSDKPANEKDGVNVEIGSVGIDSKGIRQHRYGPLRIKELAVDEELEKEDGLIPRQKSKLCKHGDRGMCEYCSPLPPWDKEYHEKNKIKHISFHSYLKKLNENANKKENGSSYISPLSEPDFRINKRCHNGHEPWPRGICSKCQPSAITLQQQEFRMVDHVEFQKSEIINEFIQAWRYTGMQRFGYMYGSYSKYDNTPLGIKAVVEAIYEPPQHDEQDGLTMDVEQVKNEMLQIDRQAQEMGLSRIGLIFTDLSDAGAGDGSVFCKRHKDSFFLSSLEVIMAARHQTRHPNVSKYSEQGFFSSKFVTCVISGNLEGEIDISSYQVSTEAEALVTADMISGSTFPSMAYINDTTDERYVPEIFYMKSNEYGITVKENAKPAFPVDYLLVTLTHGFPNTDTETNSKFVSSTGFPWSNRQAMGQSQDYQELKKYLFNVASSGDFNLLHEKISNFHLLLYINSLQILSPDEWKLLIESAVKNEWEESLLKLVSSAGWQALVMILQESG

GST-yNpl4 S498R = molecular target: T2, GST-yNpl4 S498R (Saccharomyces cerevisiae, UniProt P33755 1-580, S498R)
T2 construct: Npl4 of Saccharomyces cerevisiae (yNpl4), full length; source: E. coli Rosetta (DE3) (pGEX-6P1), purified (Glutathione Sepharose FF, Resource Q); not shown: GST, N-terminal, kept
T2 sequence (looked up): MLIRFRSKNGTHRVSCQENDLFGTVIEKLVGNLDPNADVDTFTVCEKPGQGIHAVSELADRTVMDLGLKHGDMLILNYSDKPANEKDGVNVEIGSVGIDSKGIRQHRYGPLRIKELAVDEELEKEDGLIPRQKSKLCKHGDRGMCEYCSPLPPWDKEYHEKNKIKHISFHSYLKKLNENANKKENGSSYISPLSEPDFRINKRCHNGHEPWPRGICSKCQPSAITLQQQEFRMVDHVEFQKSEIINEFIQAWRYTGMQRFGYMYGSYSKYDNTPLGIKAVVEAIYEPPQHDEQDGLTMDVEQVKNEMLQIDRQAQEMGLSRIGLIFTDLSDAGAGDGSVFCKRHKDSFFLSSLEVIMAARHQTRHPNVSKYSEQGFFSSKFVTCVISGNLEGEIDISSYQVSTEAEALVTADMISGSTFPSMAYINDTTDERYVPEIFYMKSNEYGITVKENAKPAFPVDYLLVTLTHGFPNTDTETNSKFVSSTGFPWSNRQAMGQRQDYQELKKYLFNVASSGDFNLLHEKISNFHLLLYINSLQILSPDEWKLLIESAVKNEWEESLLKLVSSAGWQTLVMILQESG

GST-yNpl4 M574A = molecular target: T3, GST-yNpl4 M574A (Saccharomyces cerevisiae, UniProt P33755 1-580, M574A)
T3 construct: Npl4 of Saccharomyces cerevisiae (yNpl4), full length; source: E. coli Rosetta (DE3) (pGEX-6P1), purified (Glutathione Sepharose FF, Resource Q); not shown: GST, N-terminal, kept
T3 sequence (looked up): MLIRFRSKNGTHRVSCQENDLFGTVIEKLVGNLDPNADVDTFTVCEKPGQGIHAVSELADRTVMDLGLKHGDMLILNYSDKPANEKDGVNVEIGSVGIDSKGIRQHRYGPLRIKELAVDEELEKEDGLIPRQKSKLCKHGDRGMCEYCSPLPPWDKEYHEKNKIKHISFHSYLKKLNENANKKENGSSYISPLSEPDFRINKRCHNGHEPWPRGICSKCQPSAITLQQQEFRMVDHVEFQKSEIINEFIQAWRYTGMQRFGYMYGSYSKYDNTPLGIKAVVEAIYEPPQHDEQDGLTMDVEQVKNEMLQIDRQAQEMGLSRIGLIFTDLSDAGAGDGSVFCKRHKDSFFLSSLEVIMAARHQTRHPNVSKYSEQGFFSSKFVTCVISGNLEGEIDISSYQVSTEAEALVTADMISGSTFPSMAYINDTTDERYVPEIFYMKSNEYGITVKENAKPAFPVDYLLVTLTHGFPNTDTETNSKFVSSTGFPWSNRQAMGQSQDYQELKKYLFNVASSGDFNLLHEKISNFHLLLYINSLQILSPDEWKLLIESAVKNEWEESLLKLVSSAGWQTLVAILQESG

binding result (GST-yNpl4 T571A): binds
binding result (GST-yNpl4 S498R): binds
binding result (GST-yNpl4 M574A): binds
B1: yUfd1 (full length, untagged) (natural protein, Saccharomyces cerevisiae, UniProt P53044 1-361, looked up)
chain: MFSGFSSFGGGNGFVNMPQTFEEFFRCYPIAMMNDRIRKDDANFGGKIFLPPSALSKLSMLNIRYPMLFKLTANETGRVTHGGVLEFIAEEGRVYLPQWMMETLGIQPGSLLQISSTDVPLGQFVKLEPQSVDFLDISDPKAVLENVLRNFSTLTVDDVIEISYNGKTFKIKILEVKPESSSKSICVIETDLVTDFAPPVGYVEPDYKALKAQQDKEKKNSFGKGQVLDPSVLGQGSMSTRIDYAGIANSSRNKLSKFVGQGQNISGKAPKAEPKQDIKDMKITFDGEPAKLDLPEGQLFFGFPMVLPKEDEESAAGSKSSEQNFQGQGISLRKSNKRKTKSDHDSSKSKAPKSPEVIEID
notes: Ufd1 of Saccharomyces cerevisiae (yUfd1), full length; codon-optimized synthetic cDNA; removal of GST by HRV3C is surmised; also called untagged Ufd1; source: E. coli Rosetta (DE3) (pGEX-6P1), purified

Source: paper PMC6910952 (Nature Communications, 2019)
